According to patent US12679878B2, “CRF2 receptor agonists and their use in therapy” (SANOFI, priority 2020, dated 2026):
Starred links: 1 amine or outer side, 2 acyl side, 3 side chain; linkers in the order of their positions; H or OH if unused. Non-standard residues stand in square brackets, D forms with d. Groups on a side chain read outwards from the residue. No end group written: not given here. *: point of attachment. C18 diacid = O=C(O)CCCCCCCCCCCCCCCCC(=O)*; γGlu = O=C(O)[C@H](CCC(=O)[*:2])N[*:1]; AEEA = NCCOCCOCC(=O)O; Aib = CC(C)(N)C(=O)O

B1: SEQ ID NO: 100 (peptide)
peptide: IVLSLDVPIKLK([AEEA-AEEA-γGlu-C18 diacid])KILLKQERQKK[Aib]REQAETN[Aib]QILAQV-NH2
modifications: N-terminus assumed
SMILES: CC[C@H](C)[C@H](N)C(=O)N[C@H](C(=O)N[C@@H](CC(C)C)C(=O)N[C@@H](CO)C(=O)N[C@@H](CC(C)C)C(=O)N[C@@H](CC(=O)O)C(=O)N[C@H](C(=O)N1CCC[C@H]1C(=O)N[C@H](C(=O)N[C@@H](CCCCN)C(=O)N[C@@H](CC(C)C)C(=O)N[C@@H](CCCCNC(=O)COCCOCCNC(=O)COCCOCCNC(=O)CC[C@H](NC(=O)CCCCCCCCCCCCCCCCC(=O)O)C(=O)O)C(=O)N[C@@H](CCCCN)C(=O)N[C@H](C(=O)N[C@@H](CC(C)C)C(=O)N[C@@H](CC(C)C)C(=O)N[C@@H](CCCCN)C(=O)N[C@@H](CCC(N)=O)C(=O)N[C@@H](CCC(=O)O)C(=O)N[C@@H](CCCNC(=N)N)C(=O)N[C@@H](CCC(N)=O)C(=O)N[C@@H](CCCCN)C(=O)N[C@@H](CCCCN)C(=O)NC(C)(C)C(=O)N[C@@H](CCCNC(=N)N)C(=O)N[C@@H](CCC(=O)O)C(=O)N[C@@H](CCC(N)=O)C(=O)N[C@@H](C)C(=O)N[C@@H](CCC(=O)O)C(=O)N[C@H](C(=O)N[C@@H](CC(N)=O)C(=O)NC(C)(C)C(=O)N[C@@H](CCC(N)=O)C(=O)N[C@H](C(=O)N[C@@H](CC(C)C)C(=O)N[C@@H](C)C(=O)N[C@@H](CCC(N)=O)C(=O)N[C@H](C(N)=O)C(C)C)[C@@H](C)CC)[C@@H](C)O)[C@@H](C)CC)[C@@H](C)CC)C(C)C)C(C)C
B2: SEQ ID NO: 102 (peptide)
peptide: IVLSLD[dV]PIKLK([AEEA-AEEA-γGlu-C18 diacid])QILLKQERQKKQREQAETNKQILAQV-NH2
modifications: N-terminus assumed
SMILES: CC[C@H](C)[C@H](N)C(=O)N[C@H](C(=O)N[C@@H](CC(C)C)C(=O)N[C@@H](CO)C(=O)N[C@@H](CC(C)C)C(=O)N[C@@H](CC(=O)O)C(=O)N[C@@H](C(=O)N1CCC[C@H]1C(=O)N[C@H](C(=O)N[C@@H](CCCCN)C(=O)N[C@@H](CC(C)C)C(=O)N[C@@H](CCCCNC(=O)COCCOCCNC(=O)COCCOCCNC(=O)CC[C@H](NC(=O)CCCCCCCCCCCCCCCCC(=O)O)C(=O)O)C(=O)N[C@@H](CCC(N)=O)C(=O)N[C@H](C(=O)N[C@@H](CC(C)C)C(=O)N[C@@H](CC(C)C)C(=O)N[C@@H](CCCCN)C(=O)N[C@@H](CCC(N)=O)C(=O)N[C@@H](CCC(=O)O)C(=O)N[C@@H](CCCNC(=N)N)C(=O)N[C@@H](CCC(N)=O)C(=O)N[C@@H](CCCCN)C(=O)N[C@@H](CCCCN)C(=O)N[C@@H](CCC(N)=O)C(=O)N[C@@H](CCCNC(=N)N)C(=O)N[C@@H](CCC(=O)O)C(=O)N[C@@H](CCC(N)=O)C(=O)N[C@@H](C)C(=O)N[C@@H](CCC(=O)O)C(=O)N[C@H](C(=O)N[C@@H](CC(N)=O)C(=O)N[C@@H](CCCCN)C(=O)N[C@@H](CCC(N)=O)C(=O)N[C@H](C(=O)N[C@@H](CC(C)C)C(=O)N[C@@H](C)C(=O)N[C@@H](CCC(N)=O)C(=O)N[C@H](C(N)=O)C(C)C)[C@@H](C)CC)[C@@H](C)O)[C@@H](C)CC)[C@@H](C)CC)C(C)C)C(C)C
B3: SEQ ID NO: 105 (peptide)
peptide: IVLSLDVPIKLK([AEEA-AEEA-γGlu-C18 diacid])QILLEQERQK[Aib]QRQQAETNKQILAQV-NH2
modifications: N-terminus assumed
SMILES: CC[C@H](C)[C@H](N)C(=O)N[C@H](C(=O)N[C@@H](CC(C)C)C(=O)N[C@@H](CO)C(=O)N[C@@H](CC(C)C)C(=O)N[C@@H](CC(=O)O)C(=O)N[C@H](C(=O)N1CCC[C@H]1C(=O)N[C@H](C(=O)N[C@@H](CCCCN)C(=O)N[C@@H](CC(C)C)C(=O)N[C@@H](CCCCNC(=O)COCCOCCNC(=O)COCCOCCNC(=O)CC[C@H](NC(=O)CCCCCCCCCCCCCCCCC(=O)O)C(=O)O)C(=O)N[C@@H](CCC(N)=O)C(=O)N[C@H](C(=O)N[C@@H](CC(C)C)C(=O)N[C@@H](CC(C)C)C(=O)N[C@@H](CCC(=O)O)C(=O)N[C@@H](CCC(N)=O)C(=O)N[C@@H](CCC(=O)O)C(=O)N[C@@H](CCCNC(=N)N)C(=O)N[C@@H](CCC(N)=O)C(=O)N[C@@H](CCCCN)C(=O)NC(C)(C)C(=O)N[C@@H](CCC(N)=O)C(=O)N[C@@H](CCCNC(=N)N)C(=O)N[C@@H](CCC(N)=O)C(=O)N[C@@H](CCC(N)=O)C(=O)N[C@@H](C)C(=O)N[C@@H](CCC(=O)O)C(=O)N[C@H](C(=O)N[C@@H](CC(N)=O)C(=O)N[C@@H](CCCCN)C(=O)N[C@@H](CCC(N)=O)C(=O)N[C@H](C(=O)N[C@@H](CC(C)C)C(=O)N[C@@H](C)C(=O)N[C@@H](CCC(N)=O)C(=O)N[C@H](C(N)=O)C(C)C)[C@@H](C)CC)[C@@H](C)O)[C@@H](C)CC)[C@@H](C)CC)C(C)C)C(C)C
B4: SEQ ID NO: 101 (peptide)
peptide: IVLSLDVPIKLK([AEEA-AEEA-γGlu-C18 diacid])KILLKQERQKK[Aib]REQAETNKQILERV-NH2
modifications: N-terminus assumed
SMILES: CC[C@H](C)[C@H](N)C(=O)N[C@H](C(=O)N[C@@H](CC(C)C)C(=O)N[C@@H](CO)C(=O)N[C@@H](CC(C)C)C(=O)N[C@@H](CC(=O)O)C(=O)N[C@H](C(=O)N1CCC[C@H]1C(=O)N[C@H](C(=O)N[C@@H](CCCCN)C(=O)N[C@@H](CC(C)C)C(=O)N[C@@H](CCCCNC(=O)COCCOCCNC(=O)COCCOCCNC(=O)CC[C@H](NC(=O)CCCCCCCCCCCCCCCCC(=O)O)C(=O)O)C(=O)N[C@@H](CCCCN)C(=O)N[C@H](C(=O)N[C@@H](CC(C)C)C(=O)N[C@@H](CC(C)C)C(=O)N[C@@H](CCCCN)C(=O)N[C@@H](CCC(N)=O)C(=O)N[C@@H](CCC(=O)O)C(=O)N[C@@H](CCCNC(=N)N)C(=O)N[C@@H](CCC(N)=O)C(=O)N[C@@H](CCCCN)C(=O)N[C@@H](CCCCN)C(=O)NC(C)(C)C(=O)N[C@@H](CCCNC(=N)N)C(=O)N[C@@H](CCC(=O)O)C(=O)N[C@@H](CCC(N)=O)C(=O)N[C@@H](C)C(=O)N[C@@H](CCC(=O)O)C(=O)N[C@H](C(=O)N[C@@H](CC(N)=O)C(=O)N[C@@H](CCCCN)C(=O)N[C@@H](CCC(N)=O)C(=O)N[C@H](C(=O)N[C@@H](CC(C)C)C(=O)N[C@@H](CCC(=O)O)C(=O)N[C@@H](CCCNC(=N)N)C(=O)N[C@H](C(N)=O)C(C)C)[C@@H](C)CC)[C@@H](C)O)[C@@H](C)CC)[C@@H](C)CC)C(C)C)C(C)C
B5: SEQ ID NO: 103 (peptide)
peptide: IVLSLDVPIKLK([AEEA-AEEA-γGlu-C18 diacid])QILLEQERQK[Aib]QREQAETNKQILAQV-NH2
modifications: N-terminus assumed
SMILES: CC[C@H](C)[C@H](N)C(=O)N[C@H](C(=O)N[C@@H](CC(C)C)C(=O)N[C@@H](CO)C(=O)N[C@@H](CC(C)C)C(=O)N[C@@H](CC(=O)O)C(=O)N[C@H](C(=O)N1CCC[C@H]1C(=O)N[C@H](C(=O)N[C@@H](CCCCN)C(=O)N[C@@H](CC(C)C)C(=O)N[C@@H](CCCCNC(=O)COCCOCCNC(=O)COCCOCCNC(=O)CC[C@H](NC(=O)CCCCCCCCCCCCCCCCC(=O)O)C(=O)O)C(=O)N[C@@H](CCC(N)=O)C(=O)N[C@H](C(=O)N[C@@H](CC(C)C)C(=O)N[C@@H](CC(C)C)C(=O)N[C@@H](CCC(=O)O)C(=O)N[C@@H](CCC(N)=O)C(=O)N[C@@H](CCC(=O)O)C(=O)N[C@@H](CCCNC(=N)N)C(=O)N[C@@H](CCC(N)=O)C(=O)N[C@@H](CCCCN)C(=O)NC(C)(C)C(=O)N[C@@H](CCC(N)=O)C(=O)N[C@@H](CCCNC(=N)N)C(=O)N[C@@H](CCC(=O)O)C(=O)N[C@@H](CCC(N)=O)C(=O)N[C@@H](C)C(=O)N[C@@H](CCC(=O)O)C(=O)N[C@H](C(=O)N[C@@H](CC(N)=O)C(=O)N[C@@H](CCCCN)C(=O)N[C@@H](CCC(N)=O)C(=O)N[C@H](C(=O)N[C@@H](CC(C)C)C(=O)N[C@@H](C)C(=O)N[C@@H](CCC(N)=O)C(=O)N[C@H](C(N)=O)C(C)C)[C@@H](C)CC)[C@@H](C)O)[C@@H](C)CC)[C@@H](C)CC)C(C)C)C(C)C
B6: SEQ ID NO: 104 (peptide)
peptide: IVLSLDVPIKLK([AEEA-AEEA-γGlu-C18 diacid])QILLKQERQK[Aib]QREQAETNKQILAQV-NH2
modifications: N-terminus assumed
SMILES: CC[C@H](C)[C@H](N)C(=O)N[C@H](C(=O)N[C@@H](CC(C)C)C(=O)N[C@@H](CO)C(=O)N[C@@H](CC(C)C)C(=O)N[C@@H](CC(=O)O)C(=O)N[C@H](C(=O)N1CCC[C@H]1C(=O)N[C@H](C(=O)N[C@@H](CCCCN)C(=O)N[C@@H](CC(C)C)C(=O)N[C@@H](CCCCNC(=O)COCCOCCNC(=O)COCCOCCNC(=O)CC[C@H](NC(=O)CCCCCCCCCCCCCCCCC(=O)O)C(=O)O)C(=O)N[C@@H](CCC(N)=O)C(=O)N[C@H](C(=O)N[C@@H](CC(C)C)C(=O)N[C@@H](CC(C)C)C(=O)N[C@@H](CCCCN)C(=O)N[C@@H](CCC(N)=O)C(=O)N[C@@H](CCC(=O)O)C(=O)N[C@@H](CCCNC(=N)N)C(=O)N[C@@H](CCC(N)=O)C(=O)N[C@@H](CCCCN)C(=O)NC(C)(C)C(=O)N[C@@H](CCC(N)=O)C(=O)N[C@@H](CCCNC(=N)N)C(=O)N[C@@H](CCC(=O)O)C(=O)N[C@@H](CCC(N)=O)C(=O)N[C@@H](C)C(=O)N[C@@H](CCC(=O)O)C(=O)N[C@H](C(=O)N[C@@H](CC(N)=O)C(=O)N[C@@H](CCCCN)C(=O)N[C@@H](CCC(N)=O)C(=O)N[C@H](C(=O)N[C@@H](CC(C)C)C(=O)N[C@@H](C)C(=O)N[C@@H](CCC(N)=O)C(=O)N[C@H](C(N)=O)C(C)C)[C@@H](C)CC)[C@@H](C)O)[C@@H](C)CC)[C@@H](C)CC)C(C)C)C(C)C

Molecular target: human corticotropin-releasing factor 2α (CRF2 α receptor) (human), Q13324
Test: cell-based or functional assay

Chain of human corticotropin-releasing factor 2α (CRF2 α receptor) (human), Q13324 (Q13324 20-411): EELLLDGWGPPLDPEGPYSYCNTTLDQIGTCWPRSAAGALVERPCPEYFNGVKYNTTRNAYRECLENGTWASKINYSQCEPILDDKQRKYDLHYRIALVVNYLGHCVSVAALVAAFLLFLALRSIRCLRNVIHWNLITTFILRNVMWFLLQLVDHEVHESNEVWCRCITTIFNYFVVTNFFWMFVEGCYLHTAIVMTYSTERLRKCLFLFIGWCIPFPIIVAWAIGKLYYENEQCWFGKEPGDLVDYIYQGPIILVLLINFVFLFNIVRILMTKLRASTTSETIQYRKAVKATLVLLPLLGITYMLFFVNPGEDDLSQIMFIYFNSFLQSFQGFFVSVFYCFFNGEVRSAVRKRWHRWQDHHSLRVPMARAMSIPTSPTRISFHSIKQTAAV

EC50 [nM], 0% HSA [nM] | EC50 [nM], 0.1% HSA [nM] | Binder
0.51 | 20.5 | B1
0.07 | – | B2
0.41 | 15.3 | B3
0.11 | 4.28 | B4
0.84 | – | B5
0.32 | – | B6
